Reference: patent US10772928B2, “Modulation and detection of a neuronal alternative splicing regulatory network for treatment and diagnosis of neurological disorders” (The Governing Council of the University of Toronto, priority 2014, dated 2020)

T1: nSR100 (Mus musculus, UniProt Q8BKA3)
T1 construct: host or cells: mouse N2A cells
T1 sequence (Q8BKA3 1-608): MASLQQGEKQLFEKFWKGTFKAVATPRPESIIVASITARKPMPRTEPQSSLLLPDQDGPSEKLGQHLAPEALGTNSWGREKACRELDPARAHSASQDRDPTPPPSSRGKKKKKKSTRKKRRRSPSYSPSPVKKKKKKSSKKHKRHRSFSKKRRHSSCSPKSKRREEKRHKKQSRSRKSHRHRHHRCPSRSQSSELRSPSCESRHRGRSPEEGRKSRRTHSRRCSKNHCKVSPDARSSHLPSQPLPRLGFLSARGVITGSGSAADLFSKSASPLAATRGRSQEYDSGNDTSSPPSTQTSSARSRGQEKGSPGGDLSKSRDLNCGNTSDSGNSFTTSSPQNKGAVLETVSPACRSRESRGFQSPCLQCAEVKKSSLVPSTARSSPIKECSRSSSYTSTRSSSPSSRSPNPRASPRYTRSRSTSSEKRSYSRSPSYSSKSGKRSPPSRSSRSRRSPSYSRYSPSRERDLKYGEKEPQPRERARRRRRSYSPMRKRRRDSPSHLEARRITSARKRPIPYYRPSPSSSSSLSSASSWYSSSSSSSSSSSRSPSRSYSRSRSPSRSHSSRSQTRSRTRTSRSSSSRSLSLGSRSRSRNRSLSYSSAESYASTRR


Target: T1, nSR100
Assay: AP-MS nSR100 interaction partners from mouse N2A cells (Table 5)
Assay type: binding
Details: for AvgP (average of the SAINT scores) / MaxP (maximal SAINT score): bait Srrm4; for FoldChange between the prey Avg spectra of the bait and control purifications: bait Srrm4, 0.1 added to prevent division by 0; for AvgSpec (average number of spectra per replicate): bait Srrm4, 2 replicates; for Spectra (number of spectra for the prey in the purification of the bait): AP-MS; for SpecSum: bait Srrm4, sum of spectra over 2 replicates
[1] = bait Srrm4, biological replicate 1 (first number of the cell)
[2] = bait Srrm4, biological replicate 2 (second number of the cell)

From the text: By applying affinity purification coupled to mass-spectrometry (AP-MS), several interaction nSR100 partner proteins were detected that provide insight into mechanisms of post-translational regulation of nSR100 levels.

AvgP (average of the SAINT scores)	MaxP (maximal SAINT score)	FoldChange between the prey Avg spectra of the bait and control purifications	AvgSpec (average number of spectra per replicate)	Spectra (number of spectra for the prey in the purification of the bait) [1]	Spectra (number of spectra for the prey in the purification of the bait) [2]	SpecSum	Molecule
0.91	0.96	7	7	6	8	14	Smc3 (protein, UniProt Q9CW03 1-1217, looked up) Structural maintenance of …: MYIKQVIIQGFRSYRDQTIVDPFSSKHNVIVGRNGSGKSNFFYAIQFVLSDEFSHLRPEQRLALLHEGTGPRVISAFVEIIFDNSDNRLPIDKEEVSLRRVIGAKKDQYFLDKKMVTKNDVMNLLESAGFSRSNPYYIVKQGKINQMATAPDSQRLKLLREVAGTRVYDERKEESISLMKETEGKREKINELLKYIEERLHTLEEEKEELAQYQKWDKMRRALEYTIYNQELNETRAKLDELSAKRETSGEKSRQLRDAQQDARDKMEDIERQVRELKTKISAMKEEKEQLSAERQEQIKQRTKLELKAKDLQDELAGNSEQRKRLLKERQKLLEKIEEKQKELAETEPKFNSVKEKEERGIARLAQATQERTDLYAKQGRGSQFTSKEERDKWIKKELKSLDQAINDKKRQIAAIHKDLEDTEANKEKNLEQYNKLDQDLNEVKARVEELDRKYYEVKNKKDELQSERNYLWREENAEQQALAAKREDLEKKQQLLRAATGKAILNGIDSINKVLEHFRRKGINQHVQNGYHGIVMNNFECEPAFYTCVEVTAGNRLFYHIVDSDEVSTKILMEFNKMNLPGEVTFLPLNKLDVRDTAYPETNDAIPMISKLRYNPRFDKAFKHVFGKTLICRSMEVSTQLARAFTMDCITLEGDQVSHRGALTGGYYDTRKSRLELQKDVRKAEEELGELEAKLNENLRRNIERINNEIDQLMNQMQQIETQQRKFKASRDSILSEMKMLKEKRQQSEKTFMPKQRSLQSLEASLHAMESTRESLKAELGTDLLSQLSLEDQKRVDALNDEIRQLQQENRQLLNERIKLEGIITRVETYLNENLRKRLDQVEQELNELRETEGGTVLTATTSELEAINKRVKDTMARSEDLDNSIDKTEAGIKELQKSMERWKNMEKEHMDAINHDTKELEKMTNRQGMLLKKKEECMKKIRELGSLPQEAFEKYQTLSLKQLFRKLEQCNTELKKYSHVNKKALDQFVNFSEQKEKLIKRQEELDRGYKSIMELMNVLELRKYEAIQLTFKQVSKNFSEVFQKLVPGGKATLVMKKGDVEGSQSQDEGEGSGESERGSGSQSSVPSVDQFTGVGIRVSFTGKQGEMREMQQLSGGQKSLVALALIFAIQKCDPAPFYLFDEIDQALDAQHRKAVSDMIMELAVHAQFITTTFRPELLESADKFYGVKFRNKVSHIDVITAEMAKDFVEDDTTHG
0.91	1	5.71	20	11	29	40	Prpf19 (protein, UniProt Q99KP6 2-504, looked up) Pre-mRNA-processing factor 19: SLICSISNEVPEHPCVSPVSNHVYERRLIEKYIAENGTDPINNQPLSEEQLIDIKVAHPIRPKPPSATSIPAILKALQDEWDAVMLHSFTLRQQLQTTRQELSHALYQHDAACRVIARLTKEVTAAREALATLKPQAGLIVPQAVPSSQPSVVGAGEPMDLGELVGMTPEIIQKLQDKATVLTTERKKRGKTVPEELVKPEELSKYRQVASHVGLHSASIPGILALDLCPSDTNKILTGGADKNVVVFDKSTEQILATLKGHTKKVTSVVFHPSQELVFSASPDATIRIWSVPNTSCVQVVRAHESAVTGLSLHATGDYLLSSSDDQYWAFSDIQTGRVLTKVTDETSGCSLTCAQFHPDGLIFGTGTMDSQIKIWDLKERTNVANFPGHSGPITSIAFSENGYYLATAADDSSVKLWDLRKLKNFKTLQLDNNFEVKSLIFDQSGTYLALGGTDVQIYICKQWTEILHFTEHSGLTTGVAFGHHAKFIASTGMDRSLKFYSL

Continued, molecule first:

Molecule	AvgP (average of the SAINT scores)	MaxP (maximal SAINT score)	FoldChange between the prey Avg spectra of the bait and control purifications	AvgSpec (average number of spectra per replicate)	Spectra (number of spectra for the prey in the purification of the bait) [1]	Spectra (number of spectra for the prey in the purification of the bait) [2]	SpecSum
Crnkl1 (protein, UniProt P63154 1-690, looked up) Crooked neck-like protein 1: MAASTAAGKQRIPKVAKVKNKAPAEVQITAEQLLREAKERELELLPPPPQQKITDEEELNDYKLRKRKTFEDNIRKNRTVISNWIKYAQWEESLKEIQRARSIYERALDVDYRNITLWLKYAEMEMKNRQVNHARNIWDRAITTLPRVNQFWYKYTYMEEMLGNVAGARQVFERWMEWQPEEQAWHSYINFELRYKEVERARTIYERFVLVHPAVKNWIKYARFEEKHAYFAHARKVYERAVEFFGDEHMDEHLYVAFAKFEENQKEFERVRVIYKYALDRISKQEAQELFKNYTIFEKKFGDRRGIEDIIVSKRRFQYEEEVKANPHNYDAWFDYLRLVESDAEADTVREVYERAIANVPPIQEKRHWKRYIYLWVNYALYEELEAKDPERTRQVYQASLELIPHKKFTFAKMWLYYAQFEIRQKNLPFARRALGTSIGKCPKNKLFKGYIELELQLREFDRCRKLYEKFLEFGPENCTSWIKFAELETILGDIERARAIYELAISQPRLDMPEVLWKSYIDFEIEQEETERTRNLYRQLLQRTQHVKVWISFAQFELSSGKEGSVAKCRQIYEEANKTMRNCEEKEERLMLLESWRSFEDEFGTVSDKERVDKLMPEKVKKRRKVQADDGSDAGWEEYYDYIFPEDAANQPNLKLLAMAKLWKKQQQEREAAEQDPDKDIDESESSSF	0.95	0.95	20	2	2|2	2|2	4
Cdk11b (protein, UniProt P24788 1-784, looked up) Cyclin-dependent kinase 11B: MGDEKDSWKVKTLDEILQEKKRRKEQEEKAEIKRLKNSDDRDSKRDSLEEGELRDHRMEITIRNSPYRREDSMEDRGEEDDSLAIKPPQQMSRKEKAHHRKDEKRKEKRRHRSHSAEGGKHARVKEKEREHERRKRHREEQDKARREWERQKRREMAREHSRRERDRLEQLERKRERERKLREQQKEQREQKERERRAEERRKEREARREVSAHHRTMREEYSDKGKVGHWSRSPLRPPRERFEMGDNRKPVKEEKVEERDLLSDLQDISDSERKTSSAESSSAESGSGSEEEEEEEEEEEEEEGSTSEESEEEEEEEEEEEEEETGSNSEEASEQSAEEVSDEEMSEDEDRENENHILVVPESRFDRDSGDSEEGEEEVGEGTPQSSAPTEGDYVPDSPALSPIELKQELPKYLPALQGCRSVEEFQCLNRIEEGTYGVVYRAKDKKTDEIVALKRLKMEKEKEGFPITSLREINTILKAQHPNIVTVREIVVGSNMDKIYIVMNYVEHDLKSLMETMKQPFLPGEVKTLMIQLLSGVKHLHDNWILHRDLKTSNLLLSHAGILKVGDFGLAREYGSPLKAYTPVVVTLWYRAPELLLGAKEYSTAVDMWSVGCIFGELLTQKPLFPGKSDIDQINKIFKDLGTPSEKIWPGYNDLPAVKKMTFSEYPYNNLRKRFGALLSDQGFDLMNKFLTYYPGRRINAEDGLKHEYFRETPLPIDPSMFPTWPAKSEQQRVKRGTSPRPPEGGLGYSQLGDDDLKETGFHLTTTNQGASAAGPGFSLKF	0.9	0.98	3.43	12	13	11	24
Csnk1e (protein, UniProt Q9JMK2 1-416, looked up) Casein kinase I isoform …: MELRVGNKYRLGRKIGSGSFGDIYLGANIASGEEVAIKLECVKTKHPQLHIESKFYKMMQGGVGIPSIKWCGAEGDYNVMVMELLGPSLEDLFNFCSRKFSLKTVLLLADQMISRIEYIHSKNFIHRDVKPDNFLMGLGKKGNLVYIIDFGLAKKYRDARTHQHIPYRENKNLTGTARYASINTHLGIEQSRRDDLESLGYVLMYFNLGSLPWQGLKAATKRQKYERISEKKMSTPIEVLCKGYPSEFSTYLNFCRSLRFDDKPDYSYLRQLFRNLFHRQGFSYDYVFDWNMLKFGAARNPEDVDRERREHEREERMGQLRGSATRALPPGPPTGATANRLRSAAEPVASTPASRIQQTGNTSPRAISRADRERKVSMRLHRGAPANVSSSDLTGRQEVSRLAASQTSVPFDHLGK	0.91	0.96	7	7	6	8	14
